Results taken from patent publication US20110064733A1.

Experiments:
[1] = molecular target: Muc1 mucin bearing the CA6 sialoglycotope (DS6 antigen), as expressed by CA6-positive human tumour cell lines (human) (UniProt P15941); test: flow cytometry on HeLa cells
[2] = molecular target: Muc1 mucin bearing the CA6 sialoglycotope (DS6 antigen), as expressed by CA6-positive human tumour cell lines (human) (UniProt P15941); test: flow cytometry on MCF7 cells
[3] = molecular target: Muc1 mucin bearing the CA6 sialoglycotope (DS6 antigen), as expressed by CA6-positive human tumour cell lines (human) (UniProt P15941); test: flow cytometry on CaOV3 cells
[4] = molecular target: Muc1 mucin bearing the CA6 sialoglycotope (DS6 antigen), as expressed by CA6-positive human tumour cell lines (human) (UniProt P15941); test: flow cytometry on KB cells
[5] = molecular target: Muc1 mucin bearing the CA6 sialoglycotope (DS6 antigen), as expressed by CA6-positive human tumour cell lines (human) (UniProt P15941); test: flow cytometry on BT549 cells

CM1 antibody (Muc1 VNTR antibody)
MMF (maximum mean relative fluorescence) (relative fluorescence) [1]: 335 | MMF (maximum mean relative fluorescence) (relative fluorescence) [2]: 1020 | MMF (maximum mean relative fluorescence) (relative fluorescence) [3]: 1030 | MMF (maximum mean relative fluorescence) (relative fluorescence) [4]: 338 | MMF (maximum mean relative fluorescence) (relative fluorescence) [5]: 188
